Reference: the supplement of paper PMC5998384

Tested on: HeLa Kyoto
Assay: melting temperature (median over replicates), in situ; higher = more thermally stable
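Note: HeLa Kyoto cells synchronized by double thymidine or nocodazole block, proteins quantified by TMT10plex mass spectrometry, three independent biological replicates.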

Sequence	melting temperature (cell cycle stage: mitosis) [°C]	melting temperature (cell cycle stage: G1/S) [°C]
MLQQDSNDDTEDVSLFDAEEETTNRPRKAKIRHPVASFFHLFFRVSAIIVCLLCELLSSSFITCMVTIILLLSCDFWAVKNVTGRLMVGLRWWNHIDEDGKSHWVFESRKESSQENKTVSEAESRIFWLGLIACSVLWVIFAFSALFSFTVKWLRRSRHIAQTGLKVLGSRDPPASAFQSAGITGVSRCPGHPSRKFHQVDINSFTRITDRALYWKPAPRLSSPPLRAAPGNCQQMAPARLFLSLRLWAWRGGGESPNSRGTGEPGPKFHLASGMH [TVP23C]	56	
MNILPKKSWHVRNKDNVARVRRDEAQAREEEKERERRVLLAQQEARTEFLRKKARHQNSLPELEAAEAGAPGSGPVDLFRELLEEGKGVIRGNKEYKEEKRQEKERQEKALGILTYLGQSAAEAQTQPPWYQLPPGRGGPPPGPAPDEKIKSRLDPLREMQKHLGKKRQHGGDEGSRSRKEKEGSEKQRPKEPPSLDQLRAERLRREAAERSRAEALLARVQGRALQEGQPEEDETDDRRRRYNSQFNPQLARRPRQQDPHLTH [LENG1]	52.5	
MLILTKTAGVFFKPSKRKVYEFLRSFNFHPGTLFLHKIVLGIETSCDDTAAAVVDETGNVLGEAIHSQTEVHLKTGGIVPPAAQQLHRENIQRIVQEALSASGVSPSDLSAIATTIKPGLALSLGVGLSFSLQLVGQLKKPFIPIHHMEAHALTIRLTNKVEFPFLVLLISGGHCLLALVQGVSDFLLLGKSLDIAPGDMLDKVARRLSLIKHPECSTMSGGKAIEHLAKQGNRFHFDIKPPLHHAKNCDFSFTGLQHVTDKIIMKKEKEEGIEKGQILSSAADIAATVQHTMACHLVKRTHRAILFCKQRDLLPQNNAVLVASGGVASNFYIRRALEILTNATQCTLLCPPPRLCTDNGIMIAWNGIERLRAGLGILHDIEGIRYEPKCPLGVDISKEVGEASIKVPQLKMEI [OSGEPL1]	51.1	53.6
MFSLPLNCSPDHIRRGSCWGRPQDLKIAAPAWNSKCHPGAGAAMARQHARTLWYDRPRYVFMEFCVEDSTDVHVLIEDHRIVFSCKNADGVELYNEIEFYAKVNSKPVWLSVDFDNWRDWEGDEEMELAHVEHYAELLKKVSTKRPPPAMDDLDDDSDSADDATSN [PTGES3L]	49.9	49.8
MEALLLGAGLLLGAYVLVYYNLVKAPPCGGMGNLRGRTAVVTGANSGIGKMTALELARRGARVVLACRSQERGEAAAFDLRQESGNNEVIFMALDLASLASVRAFATAFLSSEPRLDILIHNAGISSCGRTREAFNLLLRVNHIGPFLLTHLLLPCLKACAPSRVVVVASAAHCRGRLDFKRLDRPVVGWRQELRAYADTKLANVLFARELANQLEATGVTCYAAHPGPVNSELFLRHVPGWLRPLLRPLAWLVLRAPRGGAQTPLYCALQEGIEPLSGRYFANCHVEEVPPAARDDRAAHRLWEASKRLAGLGPGEDAEPDEDPQSEDSEAPSSLSTPHPEEPTVSQPYPSPQSSPDLSKMTHRIQAKVEPEIQLS [DHRS13]	50	
MAAAELADTQLMLGVGLIEKDTNGEVLWVWCYPSTTATLRNLLLRKCCLTDENKLLHPFVFGQYRRTWFYITIIEVPDSSILKKVTHFSIVLTAKDFNPEKYAAFTRILCRMYLKHGSPVKMMESYIAVLTKGICQSEENGSFLSKDFDARKAYPAGSIKDIVSQFGMETVILHTALMLKKRIVVYHPKIEAVQEFTRTLPALVWHRQDWTILHSYVHLNADELEALQMCTGYVAGFVDLEVSNRPDLYDVFVNLAESEITIAPLAKEAMAMGKLHKEMGQLIVQSAEDPEKSESQVIQDIALKTREIFTNLAPFSEVSADGEKRVLNLEALKQKRFPPATENFLYHLAAAEQMLKI [FAM45BP]	50.5	50.6
MAPRGRKRKAEAAVVAVAEKREKLANGGEGMEEATVVIEHCTSURVYGRNAAALSQALRLEAPELPVKVNPTKPRRGSFEVTLLRPDGSSAELWTGIKKGPPRKLKFPEPQEVVEELKKYLS [C11ORF31]	52.2	
MAEEMESSLEASFSSSGAVSGASGFLPPARSRIFKIIVIGDSNVGKTCLTYRFCAGRFPDRTEATIGVDFRERAVEIDGERIKIQLWDTAGQERFRKSMVQHYYRNVHAVVFVYDMTNMASFHSLPSWIEECKQHLLANDIPRILVGNKCDLRSAIQVPTDLAQKFADTHSMPLFETSAKNPNDNDHVEAIFMTLAHKLKSHKPLMLSQPPDNGIILKPEPKPAMTCWC [RAB33B]	55	54.3
MKKTPVFLESLVTNMLRLRAICPFSWRVFQFRPISCEPLIIQMNKCTDEEQMFGFIERNKAILSEKQVGCAFDMLWKLQKQKTSLLKNAEYVRDHPQFLTLHNLATNKFKLMNDDTLVNVLYVTQQFAGEAHDPLVEALVTEAWRRLERFDIKLLSEFSSCLADQHLYFSPLMGKIADIVHRNLETTQDLSSLSVLMVNISSLISRHFQQQLVNKTELLFDTIDSSEVNVAKSIAKFLRNVRYRYQPLLERCNNVFLSNVDHLDLDSISKILSVYKFLQFNSFEFIIMAKKKLTEMIPLCNHPASFVKLFVALGPIAGPEEKKQLKSTMLLMSEDLTGEQALAVLGAMGDMESRNSCLIKRVTSVLHKHLDGYKPLELLKITQELTFLHFQRKEFFAKLRELLLSYLKNSFIPTEVSVLVRAISLLPSPHLDEVGISRIEAVLPQCDLNNLSSFATSVLRWIQHDHMYLDNMTAKQLKLLQKLDHYGRQRLQHSNSLDLLRKELKSLKGNTFPESLLEEMIATLQHFMDDINYINVGEIASFISSTDYLSTLLLDRIASVAVQQIEKIHPFTIPAIIRPFSVLNYDPPQRDEFLGTCVQHLNSYLGILDPFILVFLGFSLATLEYFPEDLLKAIFNIKFLARLDSQLEILSPSRSARVQFHLMELNRSVCLECPEFQIPWFHDRFCQQYNKGIGGMDGTQQQIFKMLAEVLGGINCVKASVLTPYYHKVDFECILDKRKKPLPYGSHNIALGQLPEMPWESNIEIVGSRLPPGAERIALEFLDSKALCRNIPHMKGKSAMKKRHLEILGYRVIQISQFEWNSMALSTKDARMDYLRECIFGEVKSCL [FASTKD1]	49.9	
